Data as given in US20160046716A1 (Dana-Farber, published 2016).
One block for each molecule: values may come before it.

Assays:
[1] = target: MICA antigen (UniGene Hs.130838) with a C-terminal BirA tag (human) (UniProt Q29983); assay: flow cytometry of MICA-coated streptavidin beads, antibody directly conjugated to PE; legend box says 0.001ug, the label inside the plot says 0.24µg/ml (they disagree); streptavidin bead without MICA: 1.95
[2] = target: human MICA on transduced B16 melanoma cells (human) (UniProt Q29983); assay: flow cytometry of B16 cells transduced with human MICA, antibody at 10 ug/ml; unstained 11.4; the same antibody on untransduced B16: 7.49 (unstained 7.12)
[3] = target: MICA antigen (UniGene Hs.130838) with a C-terminal BirA tag (human) (UniProt Q29983); assay: flow cytometry of MICA-coated streptavidin beads, antibody directly conjugated to PE; legend box says 0.005ug, the label inside the plot says 1.2µg/ml (they disagree); streptavidin bead without MICA: 1.98
[4] = target: MICA antigen (UniGene Hs.130838) with a C-terminal BirA tag (human) (UniProt Q29983); assay: flow cytometry of MICA-coated streptavidin beads, antibody directly conjugated to PE; legend box says 0.12ug, the label inside the plot says 0.05µg/ml (they disagree); streptavidin bead without MICA: 1.95
[5] = target: MICA antigen (UniGene Hs.130838) with a C-terminal BirA tag (human) (UniProt Q29983); assay: flow cytometry of MICA-coated streptavidin beads, antibody directly conjugated to PE; legend box says 0.0002ug, label inside the plot 0.002µg/ml; streptavidin bead without MICA: 2.16
[6] = target: MICA antigen (UniGene Hs.130838) with a C-terminal BirA tag (human) (UniProt Q29983); assay: flow cytometry of MICA-coated streptavidin beads, antibody directly conjugated to PE; legend box says 0.024ug, the label inside the plot says 0.01µg/ml (they disagree); streptavidin bead without MICA: 1.95
[7] = target: MICA antigen (UniGene Hs.130838) with a C-terminal BirA tag (human) (UniProt Q29983); assay: flow cytometry of MICA-coated streptavidin beads, Alexa488 anti-human IgG; antibody at 6µg/ml; streptavidin bead without MICA: 2.63
[8] = target: MICA antigen (UniGene Hs.130838) with a C-terminal BirA tag (human) (UniProt Q29983); assay: flow cytometry of MICA-coated streptavidin beads, Alexa488 anti-human IgG; antibody at 30µg/ml; streptavidin bead without MICA: 3.53
[9] = target: MICA antigen (UniGene Hs.130838) with a C-terminal BirA tag (human) (UniProt Q29983); assay: flow cytometry of MICA-coated streptavidin beads, Alexa488 anti-human IgG; antibody at 1.2µg/ml; streptavidin bead without MICA: 2.16
[10] = target: human MICA on transduced B16 melanoma cells (human) (UniProt Q29983); assay: […], antibody at 10 ug/ml; […]
[11] = target: MICA antigen (UniGene Hs.130838) with a C-terminal BirA tag (human) (UniProt Q29983); assay: flow cytometry of MICA-coated streptavidin beads, Alexa488 anti-human IgG; antibody at 0.05µg/ml; streptavidin bead without MICA: 2.18
[12] = target: MICA antigen (UniGene Hs.130838) with a C-terminal BirA tag (human) (UniProt Q29983); assay: flow cytometry of MICA-coated streptavidin beads, Alexa488 anti-human IgG; antibody at 0.24µg/ml; streptavidin bead without MICA: 2.3
[13] = target: T1, recombinant MICA alpha 3 domain (human, UniProt Q29983 206-299); assay: cytometric bead assay: biotinylated MICA alpha 3 domain on streptavidin beads, FITC anti-human IgG, flow cytometry
T1 construct: domain: alpha 3 domain; also called Alpha 3 MICA Domain
T1 sequence (looked up): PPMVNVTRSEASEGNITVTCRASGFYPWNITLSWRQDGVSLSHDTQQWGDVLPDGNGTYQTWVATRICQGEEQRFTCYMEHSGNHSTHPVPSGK

[14] = target: T2, recombinant MICA*009 conjugated to Luminex beads (commercial kit) (human, UniProt Q29983 26-307); assay: Luminex bead assay (One Lambda kit), PE anti-human IgG secondary; bars assigned by their order in the legend box
T2 chain: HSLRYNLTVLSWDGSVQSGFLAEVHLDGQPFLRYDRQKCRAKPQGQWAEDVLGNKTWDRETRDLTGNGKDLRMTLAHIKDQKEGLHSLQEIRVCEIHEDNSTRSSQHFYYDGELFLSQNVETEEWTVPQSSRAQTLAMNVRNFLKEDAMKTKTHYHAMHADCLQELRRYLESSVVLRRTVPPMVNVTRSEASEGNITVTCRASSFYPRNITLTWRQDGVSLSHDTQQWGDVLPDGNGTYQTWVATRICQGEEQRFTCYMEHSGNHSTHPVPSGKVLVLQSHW

Sequence of MICA antigen (UniGene Hs.130838) with a C-terminal BirA tag (human) (Q29983 other isoform, or with tags, fused parts or gaps limits assumed): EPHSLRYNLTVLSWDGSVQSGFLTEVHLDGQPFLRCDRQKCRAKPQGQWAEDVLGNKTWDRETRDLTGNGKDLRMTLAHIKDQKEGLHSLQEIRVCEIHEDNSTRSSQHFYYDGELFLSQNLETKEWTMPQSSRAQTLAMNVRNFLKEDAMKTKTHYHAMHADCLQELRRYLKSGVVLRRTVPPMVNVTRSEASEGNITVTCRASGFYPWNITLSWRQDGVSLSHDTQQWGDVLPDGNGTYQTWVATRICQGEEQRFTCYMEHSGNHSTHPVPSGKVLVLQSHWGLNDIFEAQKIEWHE
Sequence of human MICA on transduced B16 melanoma cells (human) (Q29983 24-383): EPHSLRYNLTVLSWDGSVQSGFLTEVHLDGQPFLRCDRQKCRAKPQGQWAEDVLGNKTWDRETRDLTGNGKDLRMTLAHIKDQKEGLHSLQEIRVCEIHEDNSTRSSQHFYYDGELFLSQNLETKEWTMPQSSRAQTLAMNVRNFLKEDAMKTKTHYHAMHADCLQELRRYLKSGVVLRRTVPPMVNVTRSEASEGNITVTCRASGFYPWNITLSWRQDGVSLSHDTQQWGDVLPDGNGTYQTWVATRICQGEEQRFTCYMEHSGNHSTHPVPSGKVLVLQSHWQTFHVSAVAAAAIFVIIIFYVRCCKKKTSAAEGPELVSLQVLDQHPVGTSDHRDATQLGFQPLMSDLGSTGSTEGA

Molecule: commercial anti-MICA/MICB monoclonal antibody (clone 6D4, BioLegend)
- fluorescence value (statistic not given, FL2-H) [1]: 16.8
- Geom. Mean:FL1-H [2]: 188
- fluorescence value (statistic not given, FL2-H) [3]: 65.9
- fluorescence value (statistic not given, FL2-H) [4]: 391
- fluorescence value (statistic not given, FL2-H) [5]: 4.31
- fluorescence value (statistic not given, FL2-H) [6]: 194

Molecule: negative control antibody (TTCF specific)
- fluorescence value (statistic not given, FL1-H) [7]: 2.62
- fluorescence value (statistic not given, FL1-H) [8]: 3.43
- fluorescence value (statistic not given, FL1-H) [9]: 2.27
- Geom. Mean:FL1-H [10]: 11.5
- fluorescence value (statistic not given, FL1-H) [11]: 2.23
- fluorescence value (statistic not given, FL1-H) [12]: 2.28

B1: CM24002 Ab4 (antibody, V domains shown)
VH: QVQLQESGPGLVKPSGTLSLTCAVSGASITNGAWWSWVRQPPGKGLEWIGEIYLNGNTNSNPSLKSRVIISVDKSKNHFSLTLNSVTAADTAVYYCAKNAAYNLEFWGQGALVTVSS
VL: EIVLTQSPGTLSLSPGERATLSCRASQTVSSPYVAWYQQKRGQAPRLLIYGASTRATGIPDRFSGSGSGTDFTLTISRLEPEDFAVYYCQQYDRSYYYTFGQGTKLEIK
notes: also called anti-MICA antibody ID-7; antibody ID 7
- binding result [13]: no binding (tested: 10 µg/ml)

Second part, the molecule after the results:

- binding result [13]: no binding (tested: 10 µg/ml)
B2: CM24002 Ab2 (antibody, V domains shown)
VH: QVQLQESGPGLVEPSGTLSLTCTVSGGSISRSNWWSWVRQPPGEGLEWIGEIHHIGRSSYNPSLKSRVTMSVDKSQNQFSLRLTSVTAADTAVYYCAKNGYYAMDVWGQGTTVTVSS
VL: EIVLTQSPGTLSLSPGERATLSCRASQSVSSDFLAWYQQKPGQAPRLLIYATSFRATGISDRFSGSGSGTDFSLTINRLEPEDFAVYYCQHYRSSPPWYTFAQGTKLDMRRTVAAPSV
notes: also called anti-MICA antibody ID-6; antibody ID 6

- binding result [13]: no binding (tested: 10 µg/ml)
B3: CM33322 Ab11 (antibody, V domains shown)
VH: QVQLQESGPGLVKPSENLSLTCTVSDASMSDYHWSWIRQAAGKGLEWIGRMYSTGSPYYKPSLKGRVTMSIDTSKNQFSLKLASVTAADTAIYYCASGQHIGGWVPPDFWGQGTLVTVSS
VL: DIVMTQTPLSSPVTLGQPASISCRSSEGLVYSDGDTYLSWFHQRPGQPPRLLIYKISNRFSGVPDRFSGSGAGTDFTLKISRVEAEDVGVYYCMQATHFPWTFGQGTKVEVKR
notes: also called CM33322 mAb11; CM33322 11

- binding result [14]: no binding (tested: 200 µg/ml)
B4: MICA-Ab20 (antibody, V domains shown)
VH: QVQLQQWGAGLLKPSETLALTCAVSGGSFTDHYWSWIRQAPGKGLEWIGEINHSGVTNYNPSLKSRLTISVDTSKSQFSLRLTSVTAADTALYYCAKTGLYYDDVWGTFRPRGGFDSWGQGTLVTVSS
VL: DIVMTQSPDSLAVSLGERATINCKSSQSILYSSDNKNYLAWYQHKPGQPPKLLFYWASIRESGVPDRFSGGGSGTDFTLTISSLQAEDVAVYYCQQYYSPPCSFGQGTKLEIQ
notes: also called anti-MICA antibody ID-1; antibody ID 1
